Consider 2 substances from paper PMC5171805.

The target in assay [1] is MEDI1912 IgG (human). Put plainly: AUC; sedimentation velocity, 1 mg/mL, 20 °C, 20 mM sodium succinate, 125 mM arginine, pH 6.0 or 150 mM ammonium acetate, pH 6; 28,000 rpm; SEDFIT.
Assay [2] concerns the target MEDI1912 IgG (human). Kind of assay: native MS; nESI-IMS-MS, 1 mg/mL dialysed into 150 mM ammonium acetate, pH 6; dimer estimated with respect to the monomer ion intensity.
Assay [3] deals with human NGF (construct not stated) (human) (UniProt P01138). Kind of assay: not stated; Kd for the antigen; method and data in Supplementary Table 2.
Assay [4] has as its target MEDI1912_STT (human). Kind of assay: SPR; Biacore 2000, HBS-EP buffer; 100 RU MEDI1912 or MEDI1912_STT IgG amine coupled to a C1 sensor chip; two-fold dilutions of βNGF (10 nM to 78 fM) at 50 µl/min, 300-3600 s dissociation; 1:1 Langmuir fit.
In assay [5] the target is MEDI1912 (human). The assay is described as above.

Broadly, the stoichiometry N is a count of units in the complex or per binding partner. Broadly, the Kd is the equilibrium constant for the complex coming apart. In the case of MEDI1912 IgG (antibody), in assay [1], the percent dimer is above 75% and the stoichiometry N came to 2. Moreover, in assay [2], the dimer as percent of the monomer ion intensity is 11.4% and the stoichiometry N is below 4. The substance also came in with a Kd in assay [3] of 1.6 to 9.8 pM.
Broadly, the koff is the first-order rate constant of dissociation. Low values mean a long-lived complex, high ones a short-lived complex. One may read the kon as the rate constant with which the complex forms. Read a high kon as fast association. For the substance “recombinant βNGF (R&D Systems) (from UniProt P01138 122-241) (ligand)”, in assay [4], the off-rate (koff) lay in the range of 3.2e-05 to 0.00015 s⁻¹ and the kon turned out to be 1.8e+07 M⁻¹ s⁻¹. In assay [5], the dissociation rate constant (koff) fell in the range of 3.3e-05 to 0.0002 s⁻¹ and the kon was determined as 2.1e+07 M⁻¹ s⁻¹.
